{"source": "patent US20100055117A1", "about": "(published 2010)", "binders": {"B1": {"name": "TCR of T cell clone SC22 (Vα14J41; Vβ14J2.5) (TCR)", "alpha TRAV38-2/DV8*01; Vα14 TRAJ41*01; J41 CDR3": "AYENSGYALNF", "beta TRBV27*01; Vβ14 TRBJ2-5*01; Jβ2.5 CDR3": "ASSFLGETQYF"}}, "key": {"[1]": {"target": "T1, FMNL1/KW13 peptide on HLA-A*02:01 (human)", "T1 peptide": "RLPERMTTL", "assay": "multimer staining"}, "[2]": {"target": "T2, FRL (murine FMNL1 homologue) peptide on HLA-A*02:01 (human)", "T2 peptide": "RLPERMNTL", "assay": "killing"}}}
{"binder": "B1", "values": [{"measurement": "binding result", "setting": "[1]", "value": "recognises"}, {"measurement": "binding result", "setting": "[2]", "value": "recognises"}]}
